Laboratory results taken from the supplement of paper PMC10126150.
± gives the standard deviation of the averaged measurements.

system: ATP; test: switch fluorescence ratio, 500 uM ATP over buffer (Cy3 cluster intensity, sum of 5 cycles each) (fold (ratio)); higher = stronger signal-on switching upon ATP binding; sequences stand for … in TCGTCGGCAGCGTCAGATGTGTATAAGAGACAGTTTTTTTTTTTTTTTTTTTTTTTTT…TC; conditions: aptamer strand: ATP DNA aptamer (quencher-CACCTGGGGGAGTATTGCGGAGGAAGG + anchor), 100 nM annealed; ATP concentration: 500 uM
Method in brief: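 Between each of five buffer/ATP cycles, the flow-cell was stripped with NaOH and re-annealed. Each cycle imaged Cy3-labelled switching-strand clusters, annealed to 100 nM quencher-labelled ATP aptamer on a modified Illumina MiSeq flow-cell, first in selection buffer and then after 15 min with 500 uM ATP at 22 °C. The fluorescence ratio is summed target-cycle over summed buffer-cycle Cy3 intensity per cluster, averaged per switch-domain sequence, with clusters outside 100-1000 RFU excluded.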
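Further: ATP exposure 15 min at 22 °C before imaging.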

Row | Sequence | switch fluorescence ratio
1 | GTCAAAGATT | 0.98 ± 0.014
2 | GTCAATAAGG | 0.99 ± 0.016
3 | GTCAATTGGG | 0.992 ± 0.044
4 | GTCACTAAAG | 1.02 ± 0.043
5 | GTCAGAATGT | 1.02 ± 0.017
6 | GTCAGAGGCA | 0.991 ± 0.011
7 | GTCAGGCCGG | 1.09 ± 0.15
8 | GTCAGGTCTT | 0.975 ± 0.021
9 | GTCAGTCTGA | 0.9805 ± 0.003
10 | GTCATAGTGT | 0.955 ± 0.037
11 | GTCATCGAGT | 1.008 ± 0.0039
12 | GTCATCGGCC | 0.996 ± 0.035
13 | GTCATTCCGC | 1.65 ± 0.065
14 | GTCATTGCGG | 0.994 ± 0.015
15 | GTCCAAGGGT | 1.01 ± 0.035
16 | GTCCATTGGG | 1 ± 0.021
17 | GTCCATTTTG | 1.01 ± 0.064
18 | GTCCCGGTTT | 1.02 ± 0.095
19 | GTCCGAAAGA | 1.18 ± 0.095
20 | GTCCGGATGG | 1.02 ± 0.011
21 | GTCCGGGGTT | 0.994 ± 0.021
22 | GTCCGGGTGG | 1.05 ± 0.1
23 | GTCGAAGGAA | 1 ± 0.011
24 | GTCGACAGGT | 0.987 ± 0.031
25 | GTCGCCGACC | 0.996 ± 0.038

Row | Sequence | switch fluorescence ratio
26 | GTCGCGGTTG | 1.03 ± 0.0015
27 | GTCGGAAGGG | 1.01 ± 0.032
28 | GTCGGGGGAT | 1.02 ± 0.014
29 | GTCGGGGTAC | 0.997 ± 0.034
30 | GTCGGTAAGG | 0.982 ± 0.021
31 | GTCGGTACTT | 0.996 ± 0.012
32 | GTCGGTATTC | 0.9947 ± 0.0081
33 | GTCGTAAAAA | 1.61 ± 0.0016
34 | GTCGTACGTT | 1.06 ± 0.025
35 | GTCGTTAGGA | 1.01 ± 0.0038
36 | GTCGTTCGCA | 1.15 ± 0.11
37 | GTCGTTGGTT | 0.985 ± 0.033
38 | GTCGTTTGGG | 0.991 ± 0.027
39 | GTCTTATGGC | 0.997 ± 0.011
40 | GTCTTATTTA | 0.976 ± 0.014
41 | GTCTTGACGA | 0.996 ± 0.019
42 | GTGAAAAGGG | 0.963 ± 0.038
43 | GTGAAAGGGA | 1.03 ± 0.017
44 | GTGAAAGTGG | 0.979 ± 0.028
45 | GTGAAGACGT | 1.002 ± 0.0077
46 | GTGAAGAGGG | 0.9977 ± 0.0056
47 | GTGAAGTATG | 1.016 ± 0.00074
48 | GTGAATAGAG | 1 ± 0.027
49 | GTGACAGGTG | 1.47 ± 0.053
50 | GTGACCTGGG | 1.03 ± 0.026

Row | Sequence | switch fluorescence ratio
51 | GTGACGGGGT | 1.01 ± 0.022
52 | GTGACTTTCT | 0.99 ± 0.017
53 | GTGAGATGTT | 1 ± 0.016
54 | GTGAGCCGGT | 0.983 ± 0.013
55 | GTGAGGGAGT | 1.008 ± 0.006
56 | GTGAGGTGTG | 1.001 ± 0.009
57 | GTGAGTAGGG | 0.989 ± 0.018
58 | GTGAGTGGCA | 0.986 ± 0.029
59 | GTGATAAGAG | 0.999 ± 0.013
60 | GTGATAAGCG | 1.03 ± 0.04
61 | GTGATACCCG | 1.02 ± 0.058
62 | GTGATACTGG | 1.04 ± 0.014
63 | GTGATAGTTA | 0.967 ± 0.043
64 | GTGATCTGAT | 1.01 ± 0.029
65 | GTGATCTTAT | 0.9965 ± 0.0031
66 | GTGATCTTTT | 1 ± 0.049
67 | GTGATGGCAG | 0.9846 ± 0.0053
68 | GTGATGGGGG | 1.01 ± 0.051
69 | GTGATGTTAG | 1.01 ± 0.011
70 | GTGATTGCTA | 0.9878 ± 0.0061
71 | GTGATTGCTG | 0.9883 ± 0.0052
72 | GTGATTTGGT | 0.995 ± 0.019
73 | GTGATTTTGG | 0.9882 ± 0.0042
74 | GTGATTTTGT | 1.01 ± 0.032
75 | GTGCAATGTA | 1.1 ± 0.015

Row | Sequence | switch fluorescence ratio
76 | GTGCCAAGGG | 1.16 ± 0.21
77 | GTGCCCCAAG | 1 ± 0.015
78 | GTGCCCGGAT | 0.9846 ± 0.0065
79 | GTGCCCTGAC | 1.29 ± 0.041
80 | GTGCCGGGGC | 1.08 ± 0.11
81 | GTGCCTTTGC | 1.11 ± 0.067
82 | GTGCGATGTA | 1.02 ± 0.031
83 | GTGCGCAGAT | 0.982 ± 0.022
84 | GTGCGCATTG | 1.03 ± 0.046
85 | GTGCTATTAT | 0.993 ± 0.024
86 | GTGCTTAATG | 0.975 ± 0.011
87 | GTGGAAAAGG | 0.966 ± 0.046
88 | GTGGAAAGCG | 0.981 ± 0.059
89 | GTGGAAGGGG | 0.988 ± 0.03
90 | GTGGAAGTCG | 0.966 ± 0.017
91 | GTGGAATGGG | 0.983 ± 0.055
92 | GTGGACGGGG | 0.983 ± 0.033
93 | GTGGACGTTT | 1.02 ± 0.057
94 | GTGGAGGGTG | 1.05 ± 0.035
95 | GTGGAGGTTG | 0.984 ± 0.03
96 | GTGGATAGCT | 1 ± 0.05
97 | GTGGATGCAT | 1.01 ± 0.022
98 | GTGGATGGGA | 0.977 ± 0.015
99 | GTGGATTAGA | 0.9767 ± 0.0056
100 | GTGGATTATC | 1.01 ± 0.036

Row | Sequence | switch fluorescence ratio
101 | GTGGATTATT | 0.993 ± 0.05
102 | GTGGCAACGC | 0.98 ± 0.021
103 | GTGGCAGGTA | 1 ± 0.012
104 | GTGGCATTTT | 1.01 ± 0.03
105 | GTGGCTGAGG | 1.004 ± 0.0082
106 | GTGGCTTTAT | 1.01 ± 0.013
107 | GTGGCTTTGT | 1.02 ± 0.029
108 | GTGGGAAGTT | 0.9926 ± 0.0071
109 | GTGGGACACG | 1.01 ± 0.048
110 | GTGGGAGATA | 1.01 ± 0.038
111 | GTGGGATGAC | 1.01 ± 0.024
112 | GTGGGATTAG | 1 ± 0.028
113 | GTGGGATTCG | 1.011 ± 0.0059
114 | GTGGGCCAGG | 1.06 ± 0.094
115 | GTGGGGAAGT | 0.995 ± 0.034
116 | GTGGGGACAC | 0.973 ± 0.036
117 | GTGGGGATTA | 1 ± 0.018
118 | GTGGGGATTT | 1.01 ± 0.013
119 | GTGGGGCTGG | 1.008 ± 0.0055
120 | GTGGGGGACG | 0.982 ± 0.021
121 | GTGGGGGCAT | 1 ± 0.041
122 | GTGGGGGCGC | 1.04 ± 0.022
123 | GTGGGGGGCC | 0.966 ± 0.028
124 | GTGGGGGTCG | 0.98 ± 0.075
125 | GTGGGGGTGG | 0.985 ± 0.015

Row | Sequence | switch fluorescence ratio
126 | GTGGGGGTTA | 0.996 ± 0.03
127 | GTGGGGGTTT | 1.05 ± 0.14
128 | GTGGGGTCTT | 1 ± 0.019
129 | GTGGGGTGAA | 1.03 ± 0.055
130 | GTGGGGTTTT | 0.983 ± 0.022
131 | GTGGGTAAAG | 0.975 ± 0.01
132 | GTGGGTAGCG | 0.994 ± 0.013
133 | GTGGGTATTT | 0.977 ± 0.023
134 | GTGGGTCGGT | 0.979 ± 0.036
135 | GTGGGTGGTC | 1.02 ± 0.013
136 | GTGGGTGTGG | 1.02 ± 0.022
137 | GTGGGTTACT | 1.02 ± 0.021
138 | GTGGGTTAGG | 0.996 ± 0.031
139 | GTGGGTTCAG | 1 ± 0.018
140 | GTGGGTTCCT | 1.013 ± 0.0021
141 | GTGGGTTGTG | 0.978 ± 0.04
142 | GTGGTAACCT | 1.4 ± 0.12
143 | GTGGTACAGG | 1.02 ± 0.068
144 | GTGGTACATA | 0.981 ± 0.022
145 | GTGGTAGGGG | 0.995 ± 0.025
146 | GTGGTAGTTC | 0.983 ± 0.015
147 | GTGGTATTAT | 1.01 ± 0.021
148 | GTGGTATTTT | 0.999 ± 0.035
149 | GTGGTGCTAG | 0.97206 ± 1.9e-05
150 | GTGGTGGGGC | 0.955 ± 0.03

Row | Sequence | switch fluorescence ratio
151 | GTGGTGGTTG | 1.01 ± 0.028
152 | GTGGTGTTGT | 0.97 ± 0.037
153 | GTGGTTAAAA | 0.998 ± 0.012
154 | GTGGTTCTTT | 0.989 ± 0.044
155 | GTGGTTGGAG | 0.9865 ± 0.0072
156 | GTGGTTGGCC | 1.011 ± 0.0027
157 | GTGGTTTGTT | 1.01 ± 0.046
158 | GTGGTTTTCG | 1.03 ± 0.062
159 | GTGTAAATGG | 1.01 ± 0.013
160 | GTGTAACCTG | 1.01 ± 0.054
161 | GTGTAAGAAC | 1.016 ± 0.0048
162 | GTGTAAGGGT | 0.981 ± 0.018
163 | GTGTAAGGTA | 1.02 ± 0.018
164 | GTGTACGCTG | 0.988 ± 0.027
165 | GTGTAGAGTT | 1.02 ± 0.016
166 | GTGTAGGGTA | 1.01 ± 0.02
167 | GTGTATAGGA | 0.98611 ± 0.00034
168 | GTGTATATGG | 0.995 ± 0.017
169 | GTGTATCGAT | 1.003 ± 0.0081
170 | GTGTATGGGA | 0.967 ± 0.033
171 | GTGTCAAGTA | 0.961 ± 0.016
172 | GTGTCATGGA | 1 ± 0.029
173 | GTGTCCGTGG | 1.003 ± 0.0037
174 | GTGTCCTTAT | 0.998 ± 0.074
175 | GTGTCGC | 0.991 ± 0.047

Row | Sequence | switch fluorescence ratio
176 | GTGTCGGATC | 1.06 ± 0.023
177 | GTGTCGGGAA | 0.9838 ± 0.0023
178 | GTGTGAATGT | 1.01 ± 0.021
179 | GTGTGAGGTG | 1 ± 0.03
180 | GTGTGAGTTG | 0.961 ± 0.022
181 | GTGTGATCCG | 1.01 ± 0.049
182 | GTGTGCACTG | 0.996 ± 0.029
183 | GTGTGCCGTG | 1.01 ± 0.05
184 | GTGTGCGCGT | 0.983 ± 0.025
185 | GTGTGCGCTG | 1.008 ± 0.0073
186 | GTGTGGATCA | 0.9867 ± 0.0093
187 | GTGTGGGGCG | 0.962 ± 0.058
188 | GTGTGGGGGT | 0.98 ± 0.019
189 | GTGTGGTTTT | 1.03 ± 0.015
190 | GTGTGTGGGG | 1.01 ± 0.048
191 | GTGTGTTTTT | 0.975 ± 0.053
192 | GTGTTATCGT | 0.969 ± 0.045
193 | GTGTTGCCCG | 1.07 ± 0.038
194 | GTGTTGCCGA | 1 ± 0.079
195 | GTGTTGGGGT | 0.986 ± 0.02
196 | GTGTTGTACG | 0.999 ± 0.015
197 | GTGTTGTTTT | 0.987 ± 0.028
198 | GTGTTTAAA | 0.962 ± 0.014
199 | GTGTTTAAGA | 1.01 ± 0.026
200 | GTGTTTACTG | 1.01 ± 0.054
